Patent US20170296617

T1: peptide25 (ERTYSPSTAVRS)
T1 chain: ERTYSPSTAVRS

T2: Pep25-P2 (ERTYSPS)
T2 chain: ERTYSPS

B1: MBP-ROCK1 (ROCK1 catalytic domain linked to maltose binding protein) (protein)
chain: MSTGDSFETRFEKMDNLLRDPKSEVNSDCLLDGLDALVYDLDFPALRKNKNIDNFLSRYKDTINKIRDLRMKAEDYEVVKVIGRGAFGEVQLVRHKSTRKVYAMKLLSKFEMIKRSDSAFFWEERDIMAFANSPWVVQLFYAFQDDRYLYMVMEYMPGGDLVNLMSNYDVPEKWARFYTAEVVLALDAIHSMGFIHRDVKPDNMLLDKSGHLKLADFGTCMKMNKEGMVRCDTAVGTPDYISPEVLKSQGGDGYYGRECDWWSVGVFLYEMLVGDTPFYADSLVGTYSKIMNHKNSLTFPDDNDISKEAKNLICAFLTDREVRLGRNGVEEIKRHLFFKNDQWAWETLRDTVAPVVPDLSSDIDTSNFDDLEEDKGEEETFPIPKAFVGNQLPFVGFTYYSNRRYLSSANPNDNR
B2: ROCK1 (protein)
chain: MSTGDSFETRFEKMDNLLRDPKSEVNSDCLLDGLDALVYDLDFPALRKNKNIDNFLSRYKDTINKIRDLRMKAEDYEVVKVIGRGAFGEVQLVRHKSTRKVYAMKLLSKFEMIKRSDSAFFWEERDIMAFANSPWVVQLFYAFQDDRYLYMVMEYMPGGDLVNLMSNYDVPEKWARFYTAEVVLALDAIHSMGFIHRDVKPDNMLLDKSGHLKLADFGTCMKMNKEGMVRCDTAVGTPDYISPEVLKSQGGDGYYGRECDWWSVGVFLYEMLVGDTPFYADSLVGTYSKIMNHKNSLTFPDDNDISKEAKNLICAFLTDREVRLGRNGVEEIKRHLFFKNDQWAWETLRDTVAPVVPDLSSDIDTSNFDDLEEDKGEEETFPIPKAFVGNQLPFVGFTYYSNRRYLSSANPNDNRTSSNADKSLQESLQKTIYKLEEQLHNEMQLKDEMEQKCRTSNIKLDKIMKELDEEGNQRRNLESTVSQIEKEKMLLQHRINEYQRKAEQENEKRRNVENEVSTLKDQLEDLKKVSQNSQLANEKLSQLQKQLEEANDL

Columns and labels:
peptide25 (ERTYSPSTAVRS) = molecular target: T1, peptide25 (ERTYSPSTAVRS)
Pep25-P2 (ERTYSPS) = molecular target: T2, Pep25-P2 (ERTYSPS)

Row | Protein | ROCK autophosphorylation under high ATP levels (1 mM) (peptide25 (ERTYSPSTAVRS)) | [S6] phosphorylation ratio (pS6 peak area over pS6 plus S6), mass spectrometry of the ROCK reaction with substrate S6 (Pep25-P2 (ERTYSPS)) | conversion ratio of phosphorylated S6 substrate (mass spectrometry) (Pep25-P2 (ERTYSPS))
1 | B1 | blocked ROCK autophosphorylation | – | –
2 | B2 | – | ratio falls with the dose: about 31 at 1 uM, about 29 at 10 uM, about 22 at 30 uM, about 18 at 100 uM; no lower plateau, less than half suppressed at 100 uM; the pS6 peak near m/z 3710 shrinks from 1 uM to 100 uM in the four spectra | Pep25-P2 repressed the phosphorylation of substrate S6 by ROCK
